Measurements: publication PMC4861311

Experiments:
[1] = molecular target: CelB tetramer (Pyrococcus β-glucosidase CelB, isolated sample imaged by cryo-EM) (Pyrococcus furiosus) (UniProt Q51723); test: cryo-EM structure
[2] = molecular target: bacteriophage P22 coat protein (Salmonella typhimurium bacteriophage P22) (UniProt P26747); test: SEC-MALS
Chain of UniProt P26747 (P26747 whole entry): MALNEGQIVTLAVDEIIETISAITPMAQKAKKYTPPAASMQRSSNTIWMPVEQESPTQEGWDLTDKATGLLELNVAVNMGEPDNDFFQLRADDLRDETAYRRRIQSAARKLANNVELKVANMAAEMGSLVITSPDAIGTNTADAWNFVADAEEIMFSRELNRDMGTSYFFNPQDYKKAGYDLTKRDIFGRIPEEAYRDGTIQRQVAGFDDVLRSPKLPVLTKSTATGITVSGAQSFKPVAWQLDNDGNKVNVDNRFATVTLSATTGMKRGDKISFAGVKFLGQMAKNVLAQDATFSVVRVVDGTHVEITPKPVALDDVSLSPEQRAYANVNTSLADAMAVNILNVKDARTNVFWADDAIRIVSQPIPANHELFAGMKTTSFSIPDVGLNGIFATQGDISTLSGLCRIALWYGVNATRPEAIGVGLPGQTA

A stoichiometry N [1] of 4 was found for “CelB tetramer (Pyrococcus β-glucosidase CelB, isolated sample imaged by cryo-EM) (from UniProt Q51723 2-472) (enzyme)” in this work.
A #Cargo/capsid [2] of 224 cargo/capsid was found for “EGFP fused to N-terminal-truncated P22 scaffold protein” in this work.
